Results on one molecule are retold here after US7063950.

Experiment [1] deals with human neuronal calcium channel α1B-1 subunit (human).
Experiment [2] concerns the target human neuronal calcium channel α1B-2α2bβ1-3 (human). In words: saturation binding of 125I-ω-CgTx GVIA to transiently transfected HEK293 cells.
Experiment [3] has the same target.

Consider CKSPGSSCSPTSYNCCRSCNPYTKRCY (modifications not checked) [125I-ω-CgTx GVIA, P01522 46-72], for which, in experiment [1], the Bmax (sites/cell) stood at 757 sites/cell and the Kd (in general, the free concentration of one partner at which half of the binding sites on the other are occupied at equilibrium, for simple one-to-one binding) is 31.7 pM. Further, in experiment [2], the Bmax (sites/cell) was 37700 sites/cell and the Kd stood at 44.3 pM. Besides, in experiment [3], the fold binding capacity against α1B-2α2bβ1-2 was determined as 2 fold and the fold surface receptor density against α1B-2β1-3 turned out to be 13 fold.
